Measured values reported in patent US20240270840A1 (NECTIN THERAPEUTICS, published 2024).

T1: Human CD112R expressed on cells (human, UniProt Q6DKI7 1-326)
T1 construct: whole, on cells; also called HuCD112R; hCD112R
T1 sequence (looked up): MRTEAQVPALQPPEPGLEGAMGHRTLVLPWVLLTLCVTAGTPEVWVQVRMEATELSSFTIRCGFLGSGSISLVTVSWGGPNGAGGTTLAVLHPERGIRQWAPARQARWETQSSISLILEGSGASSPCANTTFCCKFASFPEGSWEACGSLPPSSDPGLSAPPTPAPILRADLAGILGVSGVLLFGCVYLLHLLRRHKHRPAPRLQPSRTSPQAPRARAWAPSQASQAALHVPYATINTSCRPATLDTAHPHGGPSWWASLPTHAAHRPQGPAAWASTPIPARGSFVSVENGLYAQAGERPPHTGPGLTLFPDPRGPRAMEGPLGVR

T2: Human CD112R (PVRIG) (human, UniProt Q6DKI7 41-171, limits assumed)
T2 sequence (looked up): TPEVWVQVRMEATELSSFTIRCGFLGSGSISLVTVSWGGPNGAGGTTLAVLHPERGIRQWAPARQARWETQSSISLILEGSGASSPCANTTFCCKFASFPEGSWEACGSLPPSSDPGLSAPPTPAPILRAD


What was measured:
[1] = molecular target: T1, Human CD112R expressed on cells; assay: FACS, chimeric mAb 99-0.4 nM in three-fold dilutions on HEK 293T cells overexpressing CD112R, anti-human-APC 1:200
Protocol: For detection, anti-human-APC antibody (Ab) was used at 1:200 dilution, and cell binding was analyzed by FACS. FIG. 3C—8866 cells ([…]) overexpressing human Nectin-2 were incubated with 10 μg/ml of CD112R-Fc in the presence of isotype control Ab, or with the indicated clones at 4 μg/ml. Bound CD112R-Fc was detected by anti-mouse-Dy-647 1:250 dilution and analyzed by FACS. The blocking of CD112R binding exceeded 95% by all the variants.
Binding was analyzed by FACS and used for calculation of EC-50 values. […] The N31S variant, engineered to remove an N-Linked glycosylation motif at the CDR1 of the heavy chain, had improved (sub-nM) binding to human CD112R in this cell-based assay.

Human CD112R (PVRIG) [2] = molecular target: T2, Human CD112R (PVRIG); assay: SPR (Biacore); human CD112R as ligand, antibody as analyte; * limit of Biacore instrument
Human CD112R (PVRIG) [3] = molecular target: T2, Human CD112R (PVRIG); assay: SPR (Biacore); human CD112R as ligand, antibody as analyte
Human CD112R (PVRIG) [4] = molecular target: T2, Human CD112R (PVRIG); assay: SPR (Biacore), against the reference Ab
[5] = molecular target: Cynomolgus monkey (Macaca fascicularis) CD112R expressed on cells (cynomolgus monkey (Macaca fascicularis)); assay: flow cytometry; EC-50 on cynomolgus CD8 T cells against EC-50 on human NK cells
[6] = molecular target: T1, Human CD112R expressed on cells; assay: flow cytometry on human NK cells (endogenous CD112R)
Protocol: (§1) The humanized mAbs were tested for binding of endogenous and overexpressed human and cynomolgus CD112R.
(§2) Table 7 summarizes EC50 values calculated based on the binding curves of selected humanized mAbs to cynomolgus CD8 T cells and human NK cells, both cells expressing endogenous CD112R of the relevant species. Assay was performed as in Table 6. An anti-CD112R mAb disclosed in WO2016134333 was used for comparison. All the humanized variants have a complete cross-reactivity between the human and cynomolgus targets.

[7] = molecular target: T1, Human CD112R expressed on cells; assay: flow cytometry EC-50 on human NK cells, against the reference Ab (member assigned from Table 7)
[8] = molecular target: T1, Human CD112R expressed on cells; assay: flow cytometry on human NK cells (endogenous CD112R); remark: listed apart in the source
[9] = molecular target: Cynomolgus monkey (Macaca fascicularis) CD112R expressed on cells (cynomolgus monkey (Macaca fascicularis)); assay: flow cytometry on cynomolgus CD8 T cells (endogenous CD112R)
[10] = molecular target: Cynomolgus monkey (Macaca fascicularis) CD112R expressed on cells (cynomolgus monkey (Macaca fascicularis)); assay: flow cytometry on 293T cells expressing cynomolgus CD112R; 99-0.05 nM, three-fold dilutions
[11] = molecular target: T1, Human CD112R expressed on cells; assay: flow cytometry on 293T cells expressing human CD112R; 99-0.05 nM, three-fold dilutions
Protocol: as §1

[12] = molecular target: T1, Human CD112R expressed on cells; assay: flow cytometry; max binding on human NK cells against max binding on cynomolgus CD8 T cells
Protocol: as §1, §2

Human CD112R (PVRIG) [13] = molecular target: T2, Human CD112R (PVRIG); assay: SPR (Biacore); purified full antibody
[14] = molecular target: Cynomolgus monkey (Macaca fascicularis) CD112R expressed on cells (cynomolgus monkey (Macaca fascicularis)); assay: flow cytometry on 293T cells; EC50 on cynomolgus CD112R against EC50 on human CD112R
[15] = molecular target: T1, Human CD112R expressed on cells; assay: flow cytometry competition on 293T cells overexpressing CD112R; antibody 40-0.018 nM; competitor hNectin-2-mIgG2a at 125 nM
Protocol: The humanized anti-CD112R antibodies are potent blockers of CD112R—Nectin-2 interactions. […] The antibodies were added in a range of concentrations of 40-0.018 nM in a series of three-fold dilutions. The amount of bound hNectin-2-mIgG2a was detected by anti-mouse antibodies fluorescently labeled with Dy-light 647 (115-606-071 Jackson immunoresearch) and analyzed by FACS.

Human CD112R (PVRIG) [16] = molecular target: T2, Human CD112R (PVRIG); assay: SPR (Biacore); purified full antibody; * limit of the Biacore instrument sensitivity

Ratio Cyno/Hu (EC-50) [5]	EC50 [6] [nM]	fold improved binding compared to the reference Ab [7] [fold]	Max binding Hu (MFI a.u - background) [8] [MFI a.u]	EC50 [9] [nM]	Max binding Cyno (MFI a.u - background) [9] [MFI a.u]	EC50 [10] [nM]	EC50 [11] [nM]	Ratio Hu/Cyno (max binding) [12]	Kd (Human CD112R (PVRIG) [13]) [nM]	Relative Kd (against VH0K0 N28T) (Human CD112R (PVRIG) [13])	koff (Human CD112R (PVRIG) [13]) [s⁻¹]	kon (Human CD112R (PVRIG) [13]) [M⁻¹ s⁻¹]	Ratio Cyno/Hu (EC50) [14]	EC50 [15] [nM]	EC-90 [15] [nM]	Binder	other results
–	–	–	–	–	–	–	–	–	–	–	–	–	–	–	–	Clone-13-hIgG1 (antibody, V domains shown, Chimeric antibody with human IgG1 constant region; also called chimeric clone (clone 13)) VH: QVQLQQPGAELVKPGTSVKLSCKASGYNFTSYWINWVKLRPGQGLEWIGDIYPGSYIPNYNEKFKNKATLTVDTSSSTAYMQLTSLASEDSALYYCAGGYFDVWGAGTTVTVSS VL: DIVMTQSPSSLSVSAGEKVTMSCKSSQSLLNSGNQKNYLAWYQQKPGQPPKLLIYGASTRESGVPDRFTGSGSGTDFTLTISSVQAEDLAVYYCQNDHSYPYTFGGGTKLEIK	EC50 [1]: 1.24 nM; Kd (Human CD112R (PVRIG) [2]): 0.00871 nM; koff (Human CD112R (PVRIG) [3]): 2.96e-06 s⁻¹; kon (Human CD112R (PVRIG) [3]): 340000 M⁻¹ s⁻¹; fold more potent in binding CD112R than the reference Ab (Human CD112R (PVRIG) [4]): 3 to 30 fold
–	–	–	–	–	–	–	–	–	–	–	–	–	–	–	–	Clone 15 (antibody, V domains shown) VH: QVQLQQPGAELVKPGTSVKLSCKASGYNFTSYWINWVKLRPGQGLEWIGDIFPGSYSPNYNKKFKRKATLTVDTSSSTAYMQLSSLASEDSALYYCAGGYFDVWGAGTTVTVSS VL: DIVMTQSPSSLSVSAGEKVTMSCKSSQSLLNSGSQKNYLAWYQQKPGQPPKLLIYGASTRESGVPDRFTGSGSGTDFTLTISFVQAEDLAVYYCQNDHSYPYTFGGGTKLEIK	EC50 [1]: 1.29 nM
1.81	0.77	> 2	988	1.39	933	0.5	0.3	1.06	0.121	0.96	4.36e-05	361000	1.67	–	–	VH10K3 (full humanized antibody) (antibody, V domains shown, Humanized full antibody, human IgG1) VH: QVQLVQSGAEVKKPGSSVKVSCKASGYTFTSYWINWVRQAPGQGLEWIGDIYPGSYIPNYNEKFKNRATLTVDTSASTAYMELSSLASEDTALYYCAGGYFDVWGQGTTVTVSS VL: DIVMTQSPDSLAVSLGERATINCKSSQSLLSSGNQKNYLAWYQQKPGQPPKLLIYGASTRESGVPDRFSGSGSGTDFTLTISSLQAEDVAVYYCQNDHSYPYTFGQGTKLEIK	–
1.61	0.91	> 2	982	1.46	820	0.72	0.3	1.2	–	–	–	–	2.43	0.29	10.7	H11K1 (full humanized antibody) (antibody, V domains shown, Humanized full antibody, human IgG1; also called VH11K1) VH: QVQLVQSGAEVKKPGSSVKVSCKASGYTFTSYWINWVRQAPGQGLEWIGDIYPGSYIPNYNEKFKNRATLTVDTSASTAYMELSSLRSEDTAVYYCAGGYFDVWGQGTTVTVSS VL: DIVMTQSPDSLSVSLGERATINCKSSQSLLSSGNQKNYLAWYQQKPGQPPKLLIYGASTRESGVPDRFTGSGSGTDFTLTISSLQAEDVAVYYCQNDHSYPYTFGQGTKLEIK	Kd (Human CD112R (PVRIG) [16]): 0.0167 nM; Relative Kd (against VH0K0 N28T) (Human CD112R (PVRIG) [16]): 0.13; koff (Human CD112R (PVRIG) [16]): 4.79e-06 s⁻¹; kon (Human CD112R (PVRIG) [16]): 287000 M⁻¹ s⁻¹
1.69	0.86	> 2	975	1.45	914	0.42	0.4	1.07	0.119	0.94	4.27e-05	359000	1.07	–	–	VH10K2 (full humanized antibody) (antibody, V domains shown, Humanized full antibody, human IgG1) VH: QVQLVQSGAEVKKPGSSVKVSCKASGYTFTSYWINWVRQAPGQGLEWIGDIYPGSYIPNYNEKFKNRATLTVDTSASTAYMELSSLASEDTALYYCAGGYFDVWGQGTTVTVSS VL: DIVMTQSPDSLAVSLGERATINCKSSQSLLSSGNQKNYLAWYQQKPGQPPKLLIYGASTRESGVPDRFTGSGSGTDFTLTISSLQAEDVAVYYCQNDHSYPYTFGQGTKLEIK	–
1.22	1.06	–	1020	1.29	839	0.71	0.28	1.21	0.112	0.89	3.77e-05	336000	2.54	0.32	9.9	H11K2 (full humanized antibody) (antibody, V domains shown, Humanized full antibody, human IgG1; also called VH11K2) VH: QVQLVQSGAEVKKPGSSVKVSCKASGYTFTSYWINWVRQAPGQGLEWIGDIYPGSYIPNYNEKFKNRATLTVDTSASTAYMELSSLRSEDTAVYYCAGGYFDVWGQGTTVTVSS VL: DIVMTQSPDSLAVSLGERATINCKSSQSLLSSGNQKNYLAWYQQKPGQPPKLLIYGASTRESGVPDRFTGSGSGTDFTLTISSLQAEDVAVYYCQNDHSYPYTFGQGTKLEIK	–
1.14	1.11	–	1000	1.27	833	0.6	0.31	1.21	–	–	–	–	1.93	0.26	9.6	H11K3 (full humanized antibody) (antibody, V domains shown, Humanized full antibody comprising hIgG1 Fc; also called VH11K3) VH: QVQLVQSGAEVKKPGSSVKVSCKASGYTFTSYWINWVRQAPGQGLEWIGDIYPGSYIPNYNEKFKNRATLTVDTSASTAYMELSSLRSEDTAVYYCAGGYFDVWGQGTTVTVSS VL: DIVMTQSPDSLAVSLGERATINCKSSQSLLSSGNQKNYLAWYQQKPGQPPKLLIYGASTRESGVPDRFSGSGSGTDFTLTISSLQAEDVAVYYCQNDHSYPYTFGQGTKLEIK	Kd (Human CD112R (PVRIG) [16]): 0.0788 nM; Relative Kd (against VH0K0 N28T) (Human CD112R (PVRIG) [16]): 0.63; koff (Human CD112R (PVRIG) [16]): 2.42e-05 s⁻¹; kon (Human CD112R (PVRIG) [16]): 307000 M⁻¹ s⁻¹
